Measurements as given in US20230338423A1 (published 2023).

What was measured:
[1] = biological target: T1, V5-SUSD2 (human SUSD2, V5-tagged) (human, UniProt Q9UGT4 28-822); experiment: anti-V5 immunoprecipitation and immunoblot, Jurkat T cells
T1 construct: Overexpressed in 293T cells or Jurkat T cells; also called SUSD2^WT; not shown: V5 and His tag
T1 sequence: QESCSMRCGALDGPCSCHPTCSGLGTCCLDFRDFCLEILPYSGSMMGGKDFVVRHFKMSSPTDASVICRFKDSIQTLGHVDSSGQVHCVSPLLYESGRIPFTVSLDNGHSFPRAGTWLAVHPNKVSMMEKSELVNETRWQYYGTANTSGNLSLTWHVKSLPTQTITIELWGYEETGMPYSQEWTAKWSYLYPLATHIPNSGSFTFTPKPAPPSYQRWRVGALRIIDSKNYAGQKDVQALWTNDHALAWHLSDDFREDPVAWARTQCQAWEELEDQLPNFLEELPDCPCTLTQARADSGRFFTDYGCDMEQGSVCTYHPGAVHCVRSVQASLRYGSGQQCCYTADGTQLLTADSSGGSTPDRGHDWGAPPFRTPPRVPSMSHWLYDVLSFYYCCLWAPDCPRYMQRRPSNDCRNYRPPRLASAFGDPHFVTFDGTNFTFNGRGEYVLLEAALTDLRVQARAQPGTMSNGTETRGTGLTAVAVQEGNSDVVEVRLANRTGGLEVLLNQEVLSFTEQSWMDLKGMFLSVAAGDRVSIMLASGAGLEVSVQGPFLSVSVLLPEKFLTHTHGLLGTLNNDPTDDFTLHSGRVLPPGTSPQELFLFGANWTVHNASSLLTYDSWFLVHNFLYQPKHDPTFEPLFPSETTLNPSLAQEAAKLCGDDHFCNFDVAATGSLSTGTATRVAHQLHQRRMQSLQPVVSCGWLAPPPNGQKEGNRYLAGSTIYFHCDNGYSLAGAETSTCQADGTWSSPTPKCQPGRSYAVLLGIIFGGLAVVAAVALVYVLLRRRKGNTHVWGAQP

V5-tagged mouse Susd2 = biological target: T2, V5-tagged mouse Susd2 (mouse, UniProt Q9DBX3 23-820); experiment: anti-V5 immunoprecipitation and immunoblot, Susd2-reconstituted Susd2-/- OT-I T cells
T2 construct: Retrovirally expressed in Susd2-/- OT-I T cells and precipitated from RIPA lysates with anti-V5 agarose; also called V5-Susd2; pMIG II-Susd2; not shown: V5 and His tag
T2 sequence: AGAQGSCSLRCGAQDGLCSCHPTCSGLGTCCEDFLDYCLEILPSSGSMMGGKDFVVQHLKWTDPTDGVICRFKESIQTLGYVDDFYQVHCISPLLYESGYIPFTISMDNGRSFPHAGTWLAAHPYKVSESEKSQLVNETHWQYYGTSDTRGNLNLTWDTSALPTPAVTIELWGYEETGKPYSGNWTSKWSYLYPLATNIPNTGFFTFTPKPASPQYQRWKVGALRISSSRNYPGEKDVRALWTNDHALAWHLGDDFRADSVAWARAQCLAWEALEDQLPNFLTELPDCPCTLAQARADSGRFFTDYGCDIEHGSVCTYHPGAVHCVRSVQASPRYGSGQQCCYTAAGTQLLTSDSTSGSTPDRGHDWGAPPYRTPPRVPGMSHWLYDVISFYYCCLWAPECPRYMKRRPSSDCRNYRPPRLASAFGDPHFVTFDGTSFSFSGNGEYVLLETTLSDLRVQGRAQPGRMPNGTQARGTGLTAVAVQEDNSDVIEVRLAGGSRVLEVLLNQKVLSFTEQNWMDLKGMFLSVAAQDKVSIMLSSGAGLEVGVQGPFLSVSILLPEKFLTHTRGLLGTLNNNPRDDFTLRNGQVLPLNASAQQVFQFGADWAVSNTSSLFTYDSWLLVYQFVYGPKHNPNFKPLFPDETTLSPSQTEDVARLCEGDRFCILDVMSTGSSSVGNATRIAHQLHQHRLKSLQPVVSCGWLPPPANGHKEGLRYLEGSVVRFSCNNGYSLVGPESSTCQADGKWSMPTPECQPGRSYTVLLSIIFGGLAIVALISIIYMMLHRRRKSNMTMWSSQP

B1: endogenous IL-2Rα in human Jurkat T cells (receptor, UniProt P01589 22-272, looked up)
chain: ELCDDDPPEIPHATFKAMAYKEGTMLNCECKRGFRRIKSGSLYMLCTGNSSHSSWDNQCQCTSSATRNTTKQVTPQPEEQKERKTTEMQSPMQPVDQASLPGHCREPPPWENEATERIYHFVVGQMVYYQCVQGYRALHRGPAESVCKMTHGKTRWTQPQLICTGEMETSQFPGEEKPQASPEGRPESETSCLVTTTDFQIQTEMAATMETSIFTTEYQVAVAGCVFLLISVLLLSGLTWQRRQRKSRRTI
notes: whole, on cells; Endogenous protein, pulled down from Jurkat lysate
- binding result [1]: binds

B2: mouse IL-15Rα (endogenous, OT-I T cells) (receptor, UniProt Q60819 33-263, looked up)
chain: GTTCPPPVSIEHADIRVKNYSVNSRERYVCNSGFKRKAGTSTLIECVINKNTNVAHWTTPSLKCIRDPSLAHYSPVPTVVTPKVTSQPESPSPSAKEPEAFSPKSDTAMTTETAIMPGSRLTPSQTTSAGTTGTGSHKSSRAPSLAATMTLEPTASTSLRITEISPHSSKMTKVAISTSVLLVGAGVVMAFLAWYIKSRQPSQPCRVEVETMETVPMTVRASSKEDEDTGA
notes: whole, on cells; Endogenous, probed by immunoblot in Susd2 precipitates
- binding result (V5-tagged mouse Susd2): no binding

B3: mouse common γ chain (endogenous, OT-I T cells) (receptor, UniProt P34902 23-369, looked up)
chain: WSSKVLMSSANEDIKADLILTSTAPEHLSAPTLPLPEVQCFVFNIEYMNCTWNSSSEPQATNLTLHYRYKVSDNNTFQECSHYLFSKEITSGCQIQKEDIQLYQTFVVQLQDPQKPQRRAVQKLNLQNLVIPRAPENLTLSNLSESQLELRWKSRHIKERCLQYLVQYRSNRDRSWTELIVNHEPRFSLPSVDELKRYTFRVRSRYNPICGSSQQWSKWSQPVHWGSHTVEENPSLFALEAVLIPVGTMGLIITLIFVYCWLERMPPIPPIKNLEDLVTEYQGNFSAWSGVSKGLTESLQPDYSERFCHVSEIPPKGGALGEGPGGSPCSLHSPYWPPPCYSLKPEA
notes: whole, on cells; Endogenous, probed by immunoblot in Susd2 precipitates; also called common 7 chain
- binding result (V5-tagged mouse Susd2): no binding

B4: mouse IL-2Rβ (endogenous, OT-I T cells) (receptor, UniProt P16297 27-539, looked up)
chain: AVKNCSHLECFYNSRANVSCMWSHEEALNVTTCHVHAKSNLRHWNKTCELTLVRQASWACNLILGSFPESQSLTSVDLLDINVVCWEEKGWRRVKTCDFHPFDNLRLVAPHSLQVLHIDTQRCNISWKVSQVSHYIEPYLEFEARRRLLGHSWEDASVLSLKQRQQWLFLEMLIPSTSYEVQVRVKAQRNNTGTWSPWSQPLTFRTRPADPMKEILPMSWLRYLLLVLGCFSGFFSCVYILVKCRYLGPWLKTVLKCHIPDPSEFFSQLSSQHGGDLQKWLSSPVPLSFFSPSGPAPEISPLEVLDGDSKAVQLLLLQKDSAPLPSPSGHSQASCFTNQGYFFFHLPNALEIESCQVYFTYDPCVEEEVEEDGSRLPEGSPHPPLLPLAGEQDDYCAFPPRDDLLLFSPSLSTPNTAYGGSRAPEERSPLSLHEGLPSLASRDLMGLQRPLERMPEGDGEGLSANSSGEQASVPEGNLHGQDQDRGQGPILTLNTDAYLSLQELQAQDSVHLI
notes: whole, on cells; Endogenous, probed by immunoblot in Susd2 precipitates; also called CD122
- binding result (V5-tagged mouse Susd2): no binding
